Results: publication PMC12117401

Target: Nb55 (Lama glama (llama immune VHH library), UniProt PDB:9GXH_1)
Assay: ITC

Binding result, no binding:
GACCCCGCCCCCGGCCCGCCCCCG (structured_DNA) [VEGF]
GGTGGGTGTGGTTGG (structured_DNA) [TBA T4G]
GGGCGCGGGAGGAATTGGGCGGG (structured_DNA) [Bcl2]
GAAAAACCCCCTTTTTC (structured_DNA) [B-DNA hairpin]
TGAGGGTGGGTAGGGTGGGTAA (structured_DNA) [c-Myc]
